Article PMC7160150, “Transcriptional repression of GIF1 by the KIX-PPD-MYC repressor complex controls seed size in Arabidopsis”

Assays:
MBP-MYC4 [1] = molecular target: T1, MBP-MYC4 (Arabidopsis thaliana (Col-0), UniProt O49687 1-589); assay: EMSA; EMSA kit (Thermo), room temperature, 20 min; binding buffer not stated (protein extraction buffer: 50 mM HEPES pH 7.5, 150 mM NaCl, 1 mM EGTA, 1% Triton X-100); conditions: protein: recombinant; tags: MBP; chain copies: 2; label: 5'-biotin
MBP-MYC3 [2] = molecular target: T2, MBP-MYC3 (Arabidopsis thaliana (Col-0), UniProt Q9FIP9 1-592); assay: as above; conditions: protein: recombinant; tags: MBP; chain copies: 2; label: 5'-biotin
MBP-MYC4 [3] = molecular target: T1, MBP-MYC4; assay: competition; competes with biotin probe A; EMSA kit (Thermo), room temperature, 20 min; binding buffer not stated (protein extraction buffer: 50 mM HEPES pH 7.5, 150 mM NaCl, 1 mM EGTA, 1% Triton X-100); conditions: protein: recombinant; tags: MBP; chain copies: 2
MBP-MYC3 [4] = molecular target: T2, MBP-MYC3; assay: as above; conditions: protein: recombinant; tags: MBP; chain copies: 2

T2 sequence (Q9FIP9 whole entry): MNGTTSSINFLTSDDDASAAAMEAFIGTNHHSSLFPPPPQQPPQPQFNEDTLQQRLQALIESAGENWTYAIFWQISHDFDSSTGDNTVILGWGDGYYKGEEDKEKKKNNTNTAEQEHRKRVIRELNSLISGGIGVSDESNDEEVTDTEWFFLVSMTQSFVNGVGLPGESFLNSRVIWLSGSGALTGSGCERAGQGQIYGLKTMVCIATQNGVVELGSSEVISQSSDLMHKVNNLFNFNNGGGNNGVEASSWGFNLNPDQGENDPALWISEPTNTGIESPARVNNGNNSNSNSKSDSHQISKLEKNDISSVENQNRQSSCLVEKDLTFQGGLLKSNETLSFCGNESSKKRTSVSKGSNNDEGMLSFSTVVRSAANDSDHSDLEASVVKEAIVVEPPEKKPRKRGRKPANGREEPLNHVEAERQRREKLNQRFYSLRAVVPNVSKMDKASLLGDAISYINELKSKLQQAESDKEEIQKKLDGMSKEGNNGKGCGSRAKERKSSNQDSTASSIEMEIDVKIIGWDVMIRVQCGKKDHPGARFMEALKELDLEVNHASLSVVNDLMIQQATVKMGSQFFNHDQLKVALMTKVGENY
T1 sequence (O49687 whole entry): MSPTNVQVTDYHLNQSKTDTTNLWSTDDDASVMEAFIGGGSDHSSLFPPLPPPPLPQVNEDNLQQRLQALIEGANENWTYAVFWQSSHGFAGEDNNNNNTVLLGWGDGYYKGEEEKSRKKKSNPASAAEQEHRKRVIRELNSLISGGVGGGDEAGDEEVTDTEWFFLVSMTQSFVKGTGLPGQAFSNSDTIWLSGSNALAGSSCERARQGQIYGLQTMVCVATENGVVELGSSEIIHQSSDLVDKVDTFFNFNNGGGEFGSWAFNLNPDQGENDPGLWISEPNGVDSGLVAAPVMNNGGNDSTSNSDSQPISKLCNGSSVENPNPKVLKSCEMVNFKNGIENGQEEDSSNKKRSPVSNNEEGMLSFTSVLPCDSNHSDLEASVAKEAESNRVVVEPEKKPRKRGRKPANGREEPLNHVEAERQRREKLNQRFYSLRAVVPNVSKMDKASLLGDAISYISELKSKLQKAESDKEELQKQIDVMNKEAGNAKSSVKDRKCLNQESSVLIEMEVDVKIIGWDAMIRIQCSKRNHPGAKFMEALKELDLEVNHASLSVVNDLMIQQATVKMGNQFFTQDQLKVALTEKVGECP

Binder | binding result (MBP-MYC4 [1]) | binding result (MBP-MYC3 [2]) | binding result (MBP-MYC4 [3]) | binding result (MBP-MYC3 [4])
probe A-m (dsDNA) DNA 1: TAAAGTATGACTCGTAGCCGTACCTCCTCTTCTTCGC DNA 2: GCGAAGAAGAGGAGGTACGGCTACGAGTCATACTTTA | no binding | no binding |  | 
probe A (dsDNA) DNA 1: TAAAGTATGACTCGTCACGTGACCTCCTCTTCTTCGC DNA 2: GCGAAGAAGAGGAGGTCACGTGACGAGTCATACTTTA | binds | binds |  | 
unlabelled probe A (dsDNA) DNA 1: TAAAGTATGACTCGTCACGTGACCTCCTCTTCTTCGC DNA 2: GCGAAGAAGAGGAGGTCACGTGACGAGTCATACTTTA |  |  | binds | binds
